Changes are numbered by the printed parent chain. Names and notes keep the numbering of the source.
T1: human FGFR4 (recombinant, construct not stated; SPR, FGFR4 ELISA, receptor-binding assay) (human, UniProt P22455 22-369, limits assumed)
T1 construct: Whole exemplary entry named
T1 sequence: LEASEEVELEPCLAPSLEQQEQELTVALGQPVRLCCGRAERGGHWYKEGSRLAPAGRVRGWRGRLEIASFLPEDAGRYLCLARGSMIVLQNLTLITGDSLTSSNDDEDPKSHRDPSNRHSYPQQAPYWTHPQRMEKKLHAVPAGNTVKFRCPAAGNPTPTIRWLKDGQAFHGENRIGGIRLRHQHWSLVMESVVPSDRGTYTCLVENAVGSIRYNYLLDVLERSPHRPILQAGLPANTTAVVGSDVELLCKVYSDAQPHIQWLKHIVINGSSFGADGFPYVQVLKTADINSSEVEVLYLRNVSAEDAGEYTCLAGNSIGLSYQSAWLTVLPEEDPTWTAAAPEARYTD

B1: hLD1.vB (humanized LD1 with light chain P44F, L46I, Y49S) (antibody, V domains shown)
VH: EVQLVESGGGLVQPGGSLRLSCAASGYTFTNHWMNWVRQAPGKGLEWVGMIHPSDSETTLDQKFKDRFTISADTSKNTAYLQMNSLRAEDTAVYYCTRGDISLFDYWGQGTLVTVSS
VL: DIQMTQSPSSLSASVGDRVTITCRTSQDISNFLNWYQQKPGKAFKILISYTSRLHSGVPSRFSGSGSGTDFTLTISSLQPEDFATYYCQQGNALPYTFGQGTKVEIK
B2: hLD1.v22 (humanized and affinity matured LD1) (antibody, V domains shown)
VH: B1 VH with H52L, S54V, D61E
VL: DIQMTQSPSSLSASVGDRVTITCRTSQDISNFLNWYQQKPGKAFKILISYTSRLHSGVPSRFSGSGSGTDFTLTISSLQPEDFATYYCQQGNALPYTFGQGTKVEIKR
B3: chimeric LD1 (murine LD1 variable domains with human kappa and human IgG1 constant domains) (antibody, V domains shown)
VH: EVQLQQPGAVLVRPGTSVKLSCKASGYTFTNHWMNWVKQRPGQGLEWIGMIHPSDSETTLDQKFKDKATLTVDKSSSTAYMQLNRPTSEDSAVYYCTRGDISLFDYWGQGTTVTVSS
VL: DIQMTQTTSSLSASLGDRVTITCRTSQDISNFLNWYQQKPDGTFKILISYTSRLHSGVPSRFSGSGSGTDYSLTISTLEQEDFATYFCQQGNALPYTFGGGTKLEIE
notes: also called chLD1; ChLD1

Legend:
[1] = biological target: T1, human FGFR4 (recombinant, construct not …); assay: surface plasmon resonance, compared with chLD1
Protocol: (§1) Affinity determinations were performed by surface plasmon resonance using a BIAcore™-2000. Approximately 50 RU of hLD1.vB IgG was immobilized in 10 mM Sodium Acetate pH 4.8 on a CM5 sensor chip and serial 2-fold dilutions of the FGFR4 (0.48-1000 nM) in PBST were injected at a flow rate of 30 μl/min. Each sample was analyzed with 4-minute association and 10-minute dissociation. After each injection the chip was regenerated using 10 mM glycine pH 1.7. Binding response was corrected by subtracting the RU from a flow cell with an irrelevant IgG immobilized at similar density. A 1:1 Languir model of simultaneous fitting of kon and koff was used for kinetics analysis.
As a first step in the humanization of LD1, the variable light and heavy domains of chLD1 were aligned with the human kappa I (huKI) and human VH subgroup III (huIII) variable domain frameworks used in trastuzumab (FIG. 10). Hypervariable regions from chLD1 were grafted into these human variable frameworks to generate a direct CDR-graft (hLD1.vA)^{15, 16}. […] Substitution of mouse sequence at various vernier positions in both the variable light and heavy domains was explored as a means to improve binding and led to the identification of three important mouse vernier positions in the LC: P44F, L46I and Y49S.

[2] = biological target: T1, human FGFR4 (recombinant, construct not …); assay: SPR (BIAcore-2000), antibody immobilized, human FGFR4 as analyte
Protocol: as §1
TABLE 3 Binding Kinetics of anti-FGFR4 antibody variants. The association and dissociation rates of human FGFR4 binding to immobilized antibody variants were measured using surface plasmon resonance.

[3] = biological target: T1, human FGFR4 (recombinant, construct not …); assay: FGFR4 ELISA (immobilized FGFR4), O.D. 450 nm against IgG concentration
[4] = biological target: T2, mouse complement C3 (ca. 37 kDa fragment, C3d, from mouse plasma) (mouse, UniProt P01027 1002-1303, limits assumed); assay: immunoprecipitation from NCR nude mouse plasma, SDS-PAGE
T2 construct: Native protein of plasma/serum, pulled down as a ca. 37 kDa band; also called mouse C3; mouse C3d
T2 sequence (P01027 1002-1303 limits assumed): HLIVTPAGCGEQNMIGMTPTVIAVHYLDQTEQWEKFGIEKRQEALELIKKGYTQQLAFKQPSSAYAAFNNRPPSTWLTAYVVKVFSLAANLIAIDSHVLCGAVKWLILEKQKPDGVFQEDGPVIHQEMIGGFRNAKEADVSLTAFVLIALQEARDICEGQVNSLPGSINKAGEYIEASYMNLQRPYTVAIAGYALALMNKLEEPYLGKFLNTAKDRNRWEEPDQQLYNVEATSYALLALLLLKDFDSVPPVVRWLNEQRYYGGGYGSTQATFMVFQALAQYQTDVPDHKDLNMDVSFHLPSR

[5] = biological target: human FGFR4-FGFR1 chimeric construct on BaF3 cells (human, UniProt P11362 398-820, limits assumed); assay: cell-based or functional assay
[6] = biological target: T3, cynomolgus FGFR4-Fc chimeric protein (cynomolgus monkey); assay: solid phase binding assay, LD1 on immobilized cFGFR4-Fc, OD 450 nm
T3 construct: also called cFGFR4

[7] = biological target: T4, cynomolgus monkey FGFR4 (SPR of FIG. 2B, construct not stated) (cynomolgus monkey); assay: surface plasmon resonance (table row 'Cynomolgus', column 'Kd (nM)')
T4 construct: also called cynomolgus FGFR4

Binder | fold weaker binding against chLD1 [1] [fold] | Kd [2] [nM] | koff [2] [s⁻¹] | EC50 (read off the curve) [3] [µg/mL] | binding result [4] | IC50 of inhibition of proliferation of BaF3/FGFR4/R1 cells in the presence of 5 nM FGF1 [5] [nM] | EC50 (read off the curve) [6] [µg/mL] | Kd [7] [nM]
B1 | ~2 | 0.97 | 0.00028 | ~4 |  |  |  | 
B2 |  | 0.043 | 3.9e-05 |  | no binding |  |  | 
B3 |  |  |  |  | no binding | 17.4 | ~0.04 | 0.8

Source: patent US20140037624A1 (Genentech, published 2014)
